Laboratory results as given in US20250304666A1 (ALCHEMAB THERAPEUTICS, published 2025).

What was measured:
reduced CFHR5 [1] = biological target: T1, reduced CFHR5 (UniProt Q9BXR6 19-569, limits assumed); assay: phage ELISA on reduced CFHR5 [B]
T1 sequence (looked up): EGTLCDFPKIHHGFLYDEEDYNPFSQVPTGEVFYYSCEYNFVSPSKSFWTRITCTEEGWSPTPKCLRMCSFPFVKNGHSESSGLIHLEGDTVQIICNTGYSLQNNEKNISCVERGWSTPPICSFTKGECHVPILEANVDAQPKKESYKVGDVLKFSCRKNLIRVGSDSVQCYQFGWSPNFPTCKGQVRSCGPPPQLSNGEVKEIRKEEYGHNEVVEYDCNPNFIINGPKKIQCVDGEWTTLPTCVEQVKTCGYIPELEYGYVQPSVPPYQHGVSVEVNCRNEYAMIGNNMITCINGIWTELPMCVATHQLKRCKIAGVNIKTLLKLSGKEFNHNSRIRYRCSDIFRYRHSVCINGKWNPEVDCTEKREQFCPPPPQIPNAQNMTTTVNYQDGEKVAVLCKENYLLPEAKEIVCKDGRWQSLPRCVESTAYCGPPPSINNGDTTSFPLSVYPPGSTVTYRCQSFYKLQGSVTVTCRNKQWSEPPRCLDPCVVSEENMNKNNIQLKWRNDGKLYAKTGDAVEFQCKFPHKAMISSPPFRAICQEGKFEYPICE

reduced CFH [2] = biological target: T2, reduced CFH (Homo sapiens (Human), UniProt P08603 860-1231, limits assumed); assay: ELISA on reduced CFH after heating the mAb (70 C, 1 h, as Figure 16)
T2 construct: also called CFH (reduced)
T2 sequence: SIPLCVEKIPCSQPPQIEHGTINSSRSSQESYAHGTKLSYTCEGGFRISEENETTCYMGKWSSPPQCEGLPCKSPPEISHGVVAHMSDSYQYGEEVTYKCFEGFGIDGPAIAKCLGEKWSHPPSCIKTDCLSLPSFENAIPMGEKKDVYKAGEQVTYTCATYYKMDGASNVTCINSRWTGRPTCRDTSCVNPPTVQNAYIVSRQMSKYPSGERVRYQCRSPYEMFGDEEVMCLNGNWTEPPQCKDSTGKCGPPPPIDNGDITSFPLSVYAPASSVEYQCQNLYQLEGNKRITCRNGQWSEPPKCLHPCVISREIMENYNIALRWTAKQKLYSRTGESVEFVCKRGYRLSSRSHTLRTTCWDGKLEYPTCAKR

reduced CFHR1 = biological target: T3, reduced CFHR1 (UniProt Q03591 19-330, limits assumed); assay: ELISA, reduced antigen
T3 sequence (looked up): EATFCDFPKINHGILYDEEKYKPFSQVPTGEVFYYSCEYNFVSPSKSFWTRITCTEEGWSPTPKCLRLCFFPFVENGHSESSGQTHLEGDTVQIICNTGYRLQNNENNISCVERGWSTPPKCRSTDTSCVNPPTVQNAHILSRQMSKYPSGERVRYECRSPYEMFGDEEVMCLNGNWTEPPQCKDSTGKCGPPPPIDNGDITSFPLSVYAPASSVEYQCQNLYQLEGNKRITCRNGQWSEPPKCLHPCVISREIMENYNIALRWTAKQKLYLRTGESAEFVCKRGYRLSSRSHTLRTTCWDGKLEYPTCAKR

reduced CFH [3] = biological target: T2, reduced CFH; assay: ELISA, reduced antigen
reduced CFHR2 = biological target: T4, reduced CFHR2 (UniProt P36980 19-270, limits assumed); assay: ELISA, reduced antigen
T4 sequence (looked up): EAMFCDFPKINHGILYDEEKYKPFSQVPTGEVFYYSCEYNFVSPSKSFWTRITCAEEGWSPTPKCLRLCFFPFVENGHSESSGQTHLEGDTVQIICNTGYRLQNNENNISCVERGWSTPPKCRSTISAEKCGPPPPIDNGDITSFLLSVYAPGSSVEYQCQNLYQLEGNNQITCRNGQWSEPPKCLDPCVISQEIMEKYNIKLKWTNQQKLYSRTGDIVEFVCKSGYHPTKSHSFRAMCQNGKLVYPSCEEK

reduced CFHR3 = biological target: T5, reduced CFHR3 (UniProt Q02985 19-330, limits assumed); assay: ELISA, reduced antigen
T5 sequence (looked up): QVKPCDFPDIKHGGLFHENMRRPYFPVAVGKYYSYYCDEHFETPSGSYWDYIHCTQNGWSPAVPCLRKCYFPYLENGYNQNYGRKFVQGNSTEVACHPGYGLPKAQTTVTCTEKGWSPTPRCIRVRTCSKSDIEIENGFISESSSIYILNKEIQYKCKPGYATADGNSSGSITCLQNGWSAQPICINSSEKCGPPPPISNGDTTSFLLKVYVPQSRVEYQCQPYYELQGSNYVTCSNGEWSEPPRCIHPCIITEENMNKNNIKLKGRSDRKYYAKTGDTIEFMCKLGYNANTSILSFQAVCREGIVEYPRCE

reduced CFHR5 [4] = biological target: T1, reduced CFHR5; assay: ELISA, reduced antigen
non-reduced CFH = biological target: T6, non-reduced CFH; assay: ELISA, non-reduced antigen
T6 construct: also called CFH (NON-REDUCED)
T6 chain: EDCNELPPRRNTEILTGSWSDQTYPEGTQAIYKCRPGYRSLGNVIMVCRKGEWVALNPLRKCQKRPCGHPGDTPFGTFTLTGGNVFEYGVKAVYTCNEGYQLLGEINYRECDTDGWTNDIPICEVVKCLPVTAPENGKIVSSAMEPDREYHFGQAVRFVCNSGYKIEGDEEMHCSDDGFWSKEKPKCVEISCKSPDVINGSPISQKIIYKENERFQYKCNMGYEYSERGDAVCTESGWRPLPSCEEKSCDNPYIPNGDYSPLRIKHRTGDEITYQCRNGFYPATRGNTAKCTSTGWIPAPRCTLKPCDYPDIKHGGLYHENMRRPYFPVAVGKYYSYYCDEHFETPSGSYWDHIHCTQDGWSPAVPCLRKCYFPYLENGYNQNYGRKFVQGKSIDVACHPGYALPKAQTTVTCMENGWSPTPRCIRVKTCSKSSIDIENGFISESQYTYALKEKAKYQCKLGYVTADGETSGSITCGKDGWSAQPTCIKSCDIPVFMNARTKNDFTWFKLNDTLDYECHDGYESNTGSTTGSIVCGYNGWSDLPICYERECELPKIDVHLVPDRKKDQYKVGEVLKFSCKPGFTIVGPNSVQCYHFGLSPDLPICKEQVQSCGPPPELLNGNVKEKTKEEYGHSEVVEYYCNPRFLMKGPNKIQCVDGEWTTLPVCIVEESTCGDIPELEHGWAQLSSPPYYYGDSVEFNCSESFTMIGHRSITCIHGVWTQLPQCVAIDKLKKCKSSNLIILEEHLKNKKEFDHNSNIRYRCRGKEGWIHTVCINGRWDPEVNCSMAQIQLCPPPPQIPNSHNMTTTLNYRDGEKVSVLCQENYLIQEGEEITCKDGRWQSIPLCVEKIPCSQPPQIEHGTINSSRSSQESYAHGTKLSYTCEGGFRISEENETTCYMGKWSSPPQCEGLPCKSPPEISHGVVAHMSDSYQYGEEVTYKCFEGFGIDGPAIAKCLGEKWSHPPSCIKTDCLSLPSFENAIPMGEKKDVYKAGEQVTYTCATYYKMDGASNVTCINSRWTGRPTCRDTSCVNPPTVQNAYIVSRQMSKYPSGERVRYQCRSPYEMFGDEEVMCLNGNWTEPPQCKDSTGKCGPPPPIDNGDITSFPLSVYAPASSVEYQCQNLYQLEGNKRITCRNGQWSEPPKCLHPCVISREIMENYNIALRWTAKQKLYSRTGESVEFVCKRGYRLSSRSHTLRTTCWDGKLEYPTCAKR

non-reduced CFHR1 = biological target: T7, non-reduced CFHR1; assay: ELISA, non-reduced antigen
T7 construct: also called CFHR1 (NON-REDUCED)
T7 chain: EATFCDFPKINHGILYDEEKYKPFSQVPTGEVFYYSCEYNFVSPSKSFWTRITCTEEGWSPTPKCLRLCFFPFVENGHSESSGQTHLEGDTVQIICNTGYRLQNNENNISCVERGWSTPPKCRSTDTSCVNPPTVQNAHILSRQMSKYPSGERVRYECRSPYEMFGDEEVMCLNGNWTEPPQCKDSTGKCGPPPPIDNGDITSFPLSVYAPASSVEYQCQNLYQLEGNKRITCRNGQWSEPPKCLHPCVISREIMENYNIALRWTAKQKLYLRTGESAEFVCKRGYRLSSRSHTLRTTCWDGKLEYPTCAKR

non-reduced CFHR3 = biological target: T8, non-reduced CFHR3; assay: ELISA, non-reduced antigen
T8 construct: also called CFHR3 (NON-REDUCED)
T8 chain: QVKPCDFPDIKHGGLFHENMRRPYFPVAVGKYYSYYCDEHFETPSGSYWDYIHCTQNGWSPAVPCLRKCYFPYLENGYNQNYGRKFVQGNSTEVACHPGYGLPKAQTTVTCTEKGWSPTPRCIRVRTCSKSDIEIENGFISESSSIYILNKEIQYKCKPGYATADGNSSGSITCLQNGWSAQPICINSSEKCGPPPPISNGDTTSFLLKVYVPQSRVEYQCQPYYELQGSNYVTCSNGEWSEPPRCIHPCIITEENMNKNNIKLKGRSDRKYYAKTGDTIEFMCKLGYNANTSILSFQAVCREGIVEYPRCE

non-reduced CFHR2 = biological target: T9, non-reduced CFHR2; assay: ELISA, non-reduced antigen
T9 construct: also called CFHR2 (NON-REDUCED)
T9 chain: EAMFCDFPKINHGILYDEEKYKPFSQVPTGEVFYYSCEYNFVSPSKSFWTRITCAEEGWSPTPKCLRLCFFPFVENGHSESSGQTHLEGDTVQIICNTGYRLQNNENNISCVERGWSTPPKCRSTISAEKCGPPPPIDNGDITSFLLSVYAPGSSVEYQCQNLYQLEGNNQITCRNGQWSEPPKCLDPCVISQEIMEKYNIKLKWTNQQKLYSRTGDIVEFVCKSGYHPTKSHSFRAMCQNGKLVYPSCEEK

non-reduced CFHR5 = biological target: T10, non-reduced CFHR5; assay: ELISA, non-reduced antigen
T10 construct: also called CFHR5 (NON-REDUCED)
T10 chain: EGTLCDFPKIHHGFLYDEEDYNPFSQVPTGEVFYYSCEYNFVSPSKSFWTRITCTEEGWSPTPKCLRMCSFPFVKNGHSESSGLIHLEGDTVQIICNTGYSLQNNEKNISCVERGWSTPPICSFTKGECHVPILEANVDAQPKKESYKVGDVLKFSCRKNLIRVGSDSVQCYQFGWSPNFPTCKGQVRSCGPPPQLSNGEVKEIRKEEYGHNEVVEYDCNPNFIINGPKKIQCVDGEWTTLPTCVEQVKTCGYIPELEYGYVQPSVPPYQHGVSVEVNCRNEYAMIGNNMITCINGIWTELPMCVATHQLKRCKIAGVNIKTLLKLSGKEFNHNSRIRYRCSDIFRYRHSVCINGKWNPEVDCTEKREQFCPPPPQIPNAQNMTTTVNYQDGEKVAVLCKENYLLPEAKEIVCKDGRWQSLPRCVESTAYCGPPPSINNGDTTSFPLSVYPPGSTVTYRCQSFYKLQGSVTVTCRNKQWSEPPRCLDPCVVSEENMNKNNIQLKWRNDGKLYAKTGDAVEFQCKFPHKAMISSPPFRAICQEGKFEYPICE

non-reduced CFHR4 = biological target: T11, non-reduced CFHR4; assay: ELISA, non-reduced antigen
T11 construct: not reduced; also called CFHR4 (NON-REDUCED)

Binder	binding result (reduced CFHR5 [1])	Harsh Heat challenge ELISA value (reduced CFH [2])	fold change vs isotype at 1 ug/ml (reduced CFHR1) [fold]	fold change vs isotype at 1 ug/ml (reduced CFH [3]) [fold]	fold change vs isotype at 1 ug/ml (reduced CFHR2) [fold]	binding result (reduced CFHR3)	fold change vs isotype at 1 ug/ml (reduced CFHR3) [fold]	binding result (reduced CFHR5 [4])	fold change vs isotype at 1 ug/ml (reduced CFHR5 [4]) [fold]	fold change vs isotype at 1 ug/ml (non-reduced CFH) [fold]	fold change vs isotype at 1 ug/ml (non-reduced CFHR1) [fold]	binding result (non-reduced CFHR3)	fold change vs isotype at 1 ug/ml (non-reduced CFHR3) [fold]	fold change vs isotype at 1 ug/ml (non-reduced CFHR2) [fold]	binding result (non-reduced CFHR5)	fold change vs isotype at 1 ug/ml (non-reduced CFHR5) [fold]	fold change vs isotype at 1 ug/ml (non-reduced CFHR4) [fold]
4894 phage (scFv, also called phage displaying the ATL4894 scFv) scFv displayed on phage: QVQLVESGGGVVQPGRSLRLSCAASGFTFSIYGMHWVRQAPGKGLEWVAVMSFDGKTKYYADSVKGRFTISRDNSKNTLYLQMNSLRAEDTAVYYCAKGGATAAVFDSWGQGTLVTVSGGGGSGGGGSGGGGSDIVMTQSPDSLAVSLGERATINCKSSQSLLYRSNNKNYLAWYQQKPGQPPKLLIYWASTRESGVPDRFSGSGSGTDFTLTISSLQAEDVAVYYCQQYYNPPWTFGQGTKVEIK	no binding	–	–	–	–	–	–	–	–	–	–	–	–	–	–	–	–
ATL_0004715 (antibody, human IgG1, kappa, V domains shown, also called ATL4715) VH: EVQLVESGGGVVQPGRSLRLSCAASGFTFSRYGMHWVRQAPGKGLEWVAVMSYDGSTKYYADSVKGRFAISRDNPKNTLFLQMNSLRPDDTAVYYCAKGGAAAAVMDVWGKGTTVTVSS VL: DIVMTQSPDSLTVSLGERATISCKSSQRLLYSSNNKNYLAWYQQKPGQPPKLLMYWASTRESGVPDRFSGSGSGTDFSLTISSLQAEDVAVYYCQQYYNPPWTFGQGTKVEVKR	–	0.09	22.9	17.2	9.9	no binding (tested: 1 ug/ml)	0.9	no binding (tested: 1 ug/ml)	1	10	10.1	no binding (tested: 1 ug/ml)	1	3.9	no binding (tested: 1 ug/ml)	0.9	0.9
